According to paper PMC9873692 (2023):

B1: P2 domain of the histidine kinase CheA (domain or fragment)
chain: GFKTFYIKVILKEGTQLKSARIYLVFHKLEELKCEVVRTIPSVEEIEEEKFENEVELFVISPVDLEKLSEALSSIADIERVIIKEV
modifications: biotin (in vivo biotinylation, AviTag)

Legend:
Test in all cases: ITC
[1] = target: B1
[2] = target: Cheytin 2
[3] = target: Cheytin 4
[4] = target: Cheytin 3
[5] = target: Cheytin 1

Kd [1] | Kd [2] | Kd [3] | Kd [4] | Kd [5] | Binder
150 nM |  |  |  |  | CheY protein from Thermotoga maritima (natural protein) MGKRVLIVDDAAFMRMMLKDIITKAGYEVAGEATNGREAVEKYKELKPDIVTMDITMPEMNGIDAIKEIMKIDPNAKIIVCSAMGQQAMVIEAIKAGAKDFIVKPFQPSRVVEALNKVSK
 | 110 nM | 490 nM | 660 nM | 220 nM | B1
